From patent publication US20190284243A1, “BINDING PEPTIDES” (University of Copenhagen, priority 2016, published 2019)
Each block holds one substance with its values, some of them ahead of it. Bridge positions count the residues as written; N and C are the ends. Square brackets hold non-standard residues; d marks the D form. Ends that are not written are not given here. dPra = C#CC[C@@H](N)C(=O)O

Assays:
[1] = molecular target: Il10 (Homo sapiens, UniProt P22301); assay: Binding of β-bodies with the target compound (Table 1), Il10; conditions: Purpose Il10; tested for binding with the target compound
[2] = tested on: HRMVRG-PEGA1900; assay: Binding to hexapeptide beads, green fluorescence associated with the beads; conditions: protein overexpressed in E. coli
Text: The fusion protein as well as EGFP was overexpressed in E. coli and purified from the cell lysate using a PEGA solid support with the hexapeptide partner, […] NO: 4), attached.

[3] = molecular target: T1, Papain (Carica papaya, UniProt P00784); assay: Binding of β-bodies with the target compound (Table 1), Papain; conditions: Purpose Papain; tested for binding with the target compound
T1 sequence (P00784 134-345): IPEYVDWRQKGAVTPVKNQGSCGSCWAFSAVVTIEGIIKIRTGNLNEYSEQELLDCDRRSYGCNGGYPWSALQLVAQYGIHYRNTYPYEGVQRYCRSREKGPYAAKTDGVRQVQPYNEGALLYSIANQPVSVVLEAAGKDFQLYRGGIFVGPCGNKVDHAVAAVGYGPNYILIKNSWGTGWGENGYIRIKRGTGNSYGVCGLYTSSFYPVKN

[4] = molecular target: eGFP (Aequorea victoria, UniProt P42212, F64L/H231L/S65T); conditions: Purpose eGFP; tested for binding with the target compound
[5] = tested on: Il1; assay: Selectivity assay GFP vs. IL1: beads incubated with ROX-IL1; assay type: binding; conditions: ROX-IL1 100 nM, both bead types incubated at the same time
Text: The same experiment was repeated with IL1.

[6] = tested on: GFP; conditions: GFP 60 nM, both bead types incubated at the same time
Method: GFP (60 nM) was incubated with different β-body beads at the same time, a first type of β-body beads specific for GFP (β-body SEQ ID NO: 1;
[…]) and a second type of β-body beads specific for IL1 (β-body SEQ ID NO: 5).

[7] = molecular target: Interleukin 2 (Homo sapiens, UniProt P60568); assay: Sandwich binding assay on PEGA beads, IL2 model
Method: For sandwich assays β-bodies identified as described in Examples 1 and 2 were synthesized by standard Fmoc-based solid phase peptide synthesis on biocompatible PEGA-beads (e.g. PEGA1900 which has a porosity allowing penetration of proteins up to 70 kDa). PEGA beads are available from Sigma Aldrich.
The sandwich binding assay was performed as follows: four beads with ligand C prepared as described above were added to 50 μL MilliQ water in a microtiter well containing 100 nM of the peptide D. The well was imaged with an ICX73 fluorescence microscope (Olympus) using a ROX filter cube.
The intensity of the fluorescence is a measure of the concentration of IL2 and the affinity of the interaction. The result obtained after 3 min. incubation is shown in FIG. 10 and after 20 min. incubation in FIG. 1D.

[8] = molecular target: Il2 (Homo sapiens, UniProt P60568); assay: Binding of β-bodies with the target compound (Table 1), Il2; conditions: Purpose Il2; tested for binding with the target compound
Il2, sequence (P60568 21-153, species assumed): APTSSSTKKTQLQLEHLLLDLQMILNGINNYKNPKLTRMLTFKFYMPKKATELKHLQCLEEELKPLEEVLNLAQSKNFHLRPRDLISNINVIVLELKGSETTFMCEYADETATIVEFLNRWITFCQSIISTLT

Interleukin 2, sequence (P60568 21-153, species assumed): as above
Il10, sequence (P22301 19-178, species assumed): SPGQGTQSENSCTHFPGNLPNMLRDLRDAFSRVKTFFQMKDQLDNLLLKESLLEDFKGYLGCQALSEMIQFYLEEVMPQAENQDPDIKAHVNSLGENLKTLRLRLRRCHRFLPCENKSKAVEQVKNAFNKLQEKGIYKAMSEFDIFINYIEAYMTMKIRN

Substance: EGFP: Enhanced Green Fluorescent Protein, overexpressed in E. coli; control without β-body
Binding to HRMVRG-PEGA1900 (green fluorescence associated with the beads) [2]: does not

Substance: IHV-abu(N3)-VTTRTMPGHPIAGADA-pra-TG (IHV[dAbu(N3)]VTTRTMPGHPIAGADA[dPra]TG; triazole 4-21 (inferred); also: X4 listed as D-3-azido-2-aminobutanoic acid, mods say azidohomoalanine) [SEQ ID NO: 49]
Binding [3]: Medium

Substance: TETKTVTITRPKMTWTFTHTVTG (Designed peptide; PEPTIDE (1)..(23) GFP) [SEQ ID NO: 1]
Binding [4]: High | Binding of β-body beads to IL1 [5]: only β-body beads specific for IL1 underwent binding | Binding of β-body beads to GFP [6]: underwent binding

Now from value to substance, other results behind:

Binding [1]: High
Substance: ATNTLTMTWPGRTNTDTFTW (Designed peptide) [SEQ ID NO: 20]

Binding [1]: High
Substance: TKTRTYTIPGERYTDTWA (Designed peptide) [SEQ ID NO: 21]

ROX fluorescence accumulation in the beads ([7]; ligand 3 beads + 100 nM ligand 4, Interleukin 2 50 nM, 3 and 20 min): positive signal | ROX fluorescence accumulation in the beads ([7]; ligand 3 beads + 100 nM ligand 4, without IL2 (interaction between the two β-bodies)): no signal | Binding [8]: High
Substance: TRTLTYTEPGITQTKTEA (Designed peptide) [SEQ ID NO: 14]
ROX fluorescence accumulation in the beads ([7]; ligand 3 beads + 100 nM ligand 4, Interleukin 2 50 nM, 3 and 20 min, listed as D): accumulation of significant ROX fluorescence | ROX fluorescence accumulation in the beads ([7]; ligand 3 beads + 100 nM ligand 4, without IL2 (interaction between the two β-bodies), listed as D): No fluorescence accumulation over background
